Results on one substance are retold here after patent publication US20180231560A1.

This assay has as its target c-MET protein (Homo sapiens (Human)) (UniProt P08581). The assay can be described thus: immunomagnetic capture of spiked c-MET expressing cell lines by anti-c-MET ferrofluid.
UniProt P08581, sequence (P08581 25-1390 limits assumed): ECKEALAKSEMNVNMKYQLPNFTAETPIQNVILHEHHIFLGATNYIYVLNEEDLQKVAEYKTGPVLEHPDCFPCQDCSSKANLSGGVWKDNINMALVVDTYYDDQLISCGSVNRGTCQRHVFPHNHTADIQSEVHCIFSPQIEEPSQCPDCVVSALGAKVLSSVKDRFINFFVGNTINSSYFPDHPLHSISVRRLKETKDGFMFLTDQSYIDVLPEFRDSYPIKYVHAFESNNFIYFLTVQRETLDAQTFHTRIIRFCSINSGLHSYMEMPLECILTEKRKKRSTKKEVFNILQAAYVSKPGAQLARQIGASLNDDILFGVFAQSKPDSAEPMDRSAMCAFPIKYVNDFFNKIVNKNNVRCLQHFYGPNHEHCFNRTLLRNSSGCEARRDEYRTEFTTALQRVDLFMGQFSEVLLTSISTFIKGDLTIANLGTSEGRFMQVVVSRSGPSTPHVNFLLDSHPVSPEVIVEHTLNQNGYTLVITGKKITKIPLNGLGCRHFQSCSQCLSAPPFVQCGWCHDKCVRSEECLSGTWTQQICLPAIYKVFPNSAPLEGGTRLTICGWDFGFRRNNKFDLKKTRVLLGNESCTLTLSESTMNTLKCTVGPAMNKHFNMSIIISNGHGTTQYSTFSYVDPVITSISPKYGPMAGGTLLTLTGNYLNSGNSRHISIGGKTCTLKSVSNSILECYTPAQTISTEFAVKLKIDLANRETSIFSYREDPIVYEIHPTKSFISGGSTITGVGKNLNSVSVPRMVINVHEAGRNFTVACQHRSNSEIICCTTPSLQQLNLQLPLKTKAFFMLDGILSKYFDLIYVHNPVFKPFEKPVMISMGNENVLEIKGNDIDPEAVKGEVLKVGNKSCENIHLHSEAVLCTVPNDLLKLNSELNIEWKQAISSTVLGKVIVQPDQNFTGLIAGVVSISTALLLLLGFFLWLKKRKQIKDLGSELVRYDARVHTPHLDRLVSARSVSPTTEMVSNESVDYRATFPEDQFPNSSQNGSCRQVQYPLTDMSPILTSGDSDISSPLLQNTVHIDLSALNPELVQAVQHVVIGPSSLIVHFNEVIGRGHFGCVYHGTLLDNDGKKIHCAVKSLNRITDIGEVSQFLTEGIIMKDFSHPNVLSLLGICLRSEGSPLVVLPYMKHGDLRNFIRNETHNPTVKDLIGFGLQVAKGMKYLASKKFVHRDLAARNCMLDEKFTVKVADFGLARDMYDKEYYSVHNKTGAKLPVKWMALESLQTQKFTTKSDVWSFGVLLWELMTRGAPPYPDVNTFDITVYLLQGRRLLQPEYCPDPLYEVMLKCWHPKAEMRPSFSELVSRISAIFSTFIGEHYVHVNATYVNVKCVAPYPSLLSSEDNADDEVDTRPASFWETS

As to “HGF R/c-MET Antibody clone L6E7 (Cell Signaling Technologies), as anti-c-MET ferrofluid”, the recovery of c-MET cells lay within 20 to 40%.
